From the nanobody polyreactivity screen of Harvey et al. (2022) come the findings set out here.

The data set in a line: yeast display, Sf9 membrane polyspecificity reagent, FACS + sequencing; frameworks hold sequencing errors. In short, it runs like this:
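Polyreactivity labels are assigned by the sorting gate from which each nanobody was recovered. The gates were low and high (top ~1%), set on anti-HA fluorescence for expression and streptavidin fluorescence for reagent binding. Before sorting, galactose-induced (36–48 hours) yeast display cells were stained for 1 hour at 4 °C with 10% biotinylated, detergent-solubilized Sf9 membrane reagent.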
Take “QVQLVDSGGGLVQAGGSLRLSCAASGRIFGPYAMVWYRQAPGKERELVASISYSGGSTYYADSVKGRFTISRDNAKNTVYLQMNSLKPEDTAVYYCAKGGYWGGYNYWGQGTQVTVSS”: the “polyreactivity (PSR sort gate)” value was “low polyreactivity”.
The result for “QVQLVDSGGGLVQAGGSLRLSCAASGRIFLYNGMGWYRQAPGKERELVAGIITGGNTNYADSVKGRFTISRDNAKNTVYLQMNSLKPEDTAVYYCAAEVIVYGWSPDYDYWGQGTQVTLSS” reads “low polyreactivity”; that for “QVQLVDSGGGLVQAGGSLRLSCAASGRIFQQNAMGWYRQAPGKERELVAAISWRGTSTYYADSVKGRFTISRDNAKNTVYLQMNSLKPEDTAVYYCAAQGYAYTLVAKVYRWYEYAYWGQGTQVTVSS”, “high polyreactivity”.
As for “QVQLVDSGGGLVQAGGSLRLSCAASGRIFRRYTMGWYRQAPGKERELVAAISSGGGTNYADSVKGRFSISRDNAKNTVYLQMNSLKPEDTAVYYCNARSWLSRGYGYWGQGTQVTVSS”, the entry is “high polyreactivity”; as for “QVQLVDSGGGLVQAGGSLRLSCAASGRIFRSYAMGWYRQAPGKERELVAGISSTGGNTYYADSVKGRFTISRDNAKNTVYLQMNSLKPEDTAVYYCAAYWFRGYKYWGQGTQVTVSS”, “high polyreactivity”.
As for “QVQLVDSGGGLVQAGGSLRLSCAASGRIIWYKGMGWYTQATGKERELVAAINRGTSTYYADSVKGRFTISRDNAKNSVYLQMNSLKPEDTAVYYCAAGVSRWYYYWGQGTQVTVSS”, the “polyreactivity (PSR sort gate)” value is given as “high polyreactivity”.
Turning to “QVQLVDSGGGLVQAGGSLRLSCAASGRTFAYNVMGWYRQAPGKERELVAAISRGGGRTYYADSVKGRFTIARDNAKNTVYLQMNSLKPEDTAVYYCNAYLFFLNRVWSFDYWGQGTQVTVSS”, the “polyreactivity (PSR sort gate)” value is recorded as “high polyreactivity”.
As for “QVQLVDSGGGLVQAGGSLRLSCAASGRTFGGNAIGRYIQAPGKETELVAGINISGGSTNYADSVKGRFTISRDNAMNTVYLQMNSLKPEDTPVYYCNADTAVYAWDDDYWGQGTQVTVSS”, the entry is “low polyreactivity”; as for “QVQLVDSGGGLVQAGGSLRLSCAASGRTFQRNAMGWYRQAPGTERELVATITTNGGSTYYADSVKGRFTISRDNAKNTVYLQMNSLKPEDTAVYYCAAPFNPRVRTLRSVRMDYWGQGTQVTVSS”, “low polyreactivity”; as for “QVQLVDSGGGLVQAGGSLRLSCAASGRTFRYYDMGWYRPAPGEVREFVAAITWRGGSTYYADSVKGRFTISRDNAKNTVYSQMNSLKPEDTAVYYCATDSLRLYGGKRDLYYWGQGTQVTVSS”, “low polyreactivity”.
For “QVQLVDSGGGLVQAGGSLRLSCAASGRTFSLYAMGWYRQAPGKERELVATISQSGGSTYYADSVKGRFTISRDNAKNTVYLQMNSQKPEDTAVYNCAAGGIYLDYFGQGTQVTVSS”, the “polyreactivity (PSR sort gate)” value is given as “low polyreactivity”.
In the case of “QVQLVDSGGGLVQAGGSLRLSCAASGRTFSVNAMGWYRQAPGKERELVAAISSAGSTNYADSVKGRFTISRDNAKNTVYLQMNSLKPEDTAVYYCAAGFSPGNYDAPTLAFDYWGQGTQVTLSS”, the “polyreactivity (PSR sort gate)” value is “low polyreactivity”.
On to “QVQLVDSGGGLVQAGGSLRLSCAASGRTFTVYAMGWYRQAPGKERELVASISGSSGSTDYADSVKGRFTISRDNAKNTVYLQMNSLKPEDTAVYFCAKASSATRYVQLRQDYDYWGQGTQVTVSS”, for which the “polyreactivity (PSR sort gate)” value is reported as “low polyreactivity”.
As to “QVQLVDSGGGLVQAGGSLRLSCAASGRTFWIYAMGWYRPAPGKERELVAAISRGGSTYADSVKGRFTISRDNAKNTVYLQMNSLKPEDTAVYYCAASTPQYQYYYWGQGTQVTVSS”, the “polyreactivity (PSR sort gate)” value is reported as “high polyreactivity”.
On to “QVQLVDSGGGLVQAGGSLRLSCAASGSIFAGYTMGGYRQAPGKEREFVAAISSSGGSTYYADSVKGRFTISRDNAKNTVYLQMNSLKPEDTAVSYCAVRGRISSVSRYGYWGQGTQVTVSS”, for which the “polyreactivity (PSR sort gate)” value is on record as “high polyreactivity”.
Take “QVQLVDSGGGLVQAGGSLRLSCAASGSIFGLYAMGWYRQAPGKERELVAAISASGGSTYYADSVKGRFTISRDNAKNTVYLQMNSLKPEDTAVYYCAADLGYPTYDYWGQDTQVTVSS”: the “polyreactivity (PSR sort gate)” value is “low polyreactivity”.
As for “QVQLVDSGGGLVQAGGSLRLSCAASGSIFGSYVMGWYRQAPGKERELVAAISSSGASTYYADSVKGRFTISRDNAKNTVYLQMNSLKPEDTAVYYCAAGYVHLYYFHEYYWGQGTQVTVSS”, the entry is “high polyreactivity”; as for “QVQLVDSGGGLVQAGGSLRLSCAASGSIFHVNAMGWYRQAPGKERELVAAIRSDASTNYADSVKGRFTISRDNAKNTVYLQMNILKPEDTAVYYCNTAQLVSDEFDYSGQGTQVTVSS”, “low polyreactivity”; as for “QVQLVDSGGGLVQAGGSLRLSCAASGSIFPDNAMGWYRQAPGKEWEFVAAINWSTGTTYYADSVKGRFTISRDNAKNTVYLQMNSLKPEDTAVYYFNASDQAKYDYWGQGTQVTVSS”, “low polyreactivity”.
Consider “QVQLVDSGGGLVQAGGSLRLSCAASGSIFSVYAMGWYRQAPGKERELVAAISSRGGSTYYADSVKGRFTISRDNAKNTVYLQMNSLKPEDTAVYYCAASRQSQRGYWGQGTQVTVSS”, for which the “polyreactivity (PSR sort gate)” value was “high polyreactivity”.
For “QVQLVDSGGGLVQAGGSLRLSCAASGSIFWDYAMGWYRQAPGIERELVASIPSGGSTYYADSVKGRFTISRDNAKKTVYLQMNRLKPEDTAVYYCAADGHTRHWGQTGRGAMYYWGQGTQVTVSS”, the “polyreactivity (PSR sort gate)” value was “low polyreactivity”.
On to “QVQLVDSGGGLVQAGGSLRLSCAASGSIFYRNAMGWSRQAPGKERELVAAITRGGSTYYADSVKGRFTISRDNAKNTVYLQMNSLKPEDTAVYYCNAYGGFAYSYDYWGQGTQVTVSS”, for which the “polyreactivity (PSR sort gate)” value is on record as “high polyreactivity”.
Turning to “QVQLVDSGGGLVQAGGSLRLSCAASGSILESNVMGWYRQAPGKERELVASISSSGDSTYADSVKGRFTISRDNAKNTVYLQMNILKPEYTAVYYCAADRWYWTYALYYWGQGTQVTVSS”, the “polyreactivity (PSR sort gate)” value is listed as “low polyreactivity”.
For “QVQLVDSGGGLVQAGGSLRLSCAASGSILFEYMGWYRQAPGKERELVAAITIRDGGTYYADSVKGRFTISRDNAKNTVYLQMNSLKPEDTAVYYCNADFSGGWRYDYWGQGTQVTVSS”, the “polyreactivity (PSR sort gate)” value is given as “low polyreactivity”.
Turning to “QVQLVDSGGGLVQAGGSLRLSCAASGSTFDPYTMGWYRQAPGTERELVAGMTGGGSTYYADCVKGRFTISRDNAKNTVYLQMNSLKPEDTAVYYCARDYSYYKGPDGHYWGQGTQVTVSS”, the “polyreactivity (PSR sort gate)” value was “low polyreactivity”.
For the sequence “QVQLVDSGGGLVQAGGSLRLSCAASGSTFDVYAMGWYRQAPGKERELVAVINTSGTRTYYADSVKGRFTISRDNAKNTVYLQMNSLKPEDTEVYYCNAGGHLEMNYWGQGTQVTVSS”, the “polyreactivity (PSR sort gate)” value is “low polyreactivity”.
“QVQLVDSGGGLVQAGGSLRLSCAASGSTFISYAMRWYRPAPGKERELVAAISSSTGRTYYADSVKGRFTISRDNAKNTVYLQMNSLKPEDTAVYYCNAVHRYERVYWGQGTQVTVSS”: the “polyreactivity (PSR sort gate)” value is recorded as “high polyreactivity”.
For the sequence “QVQLVDSGGGLVQAGGSLRLSCAASGSTFQGNTMGWYRQAPGKERELVAAISRSGGITYYADSVKGRFTISRVNAKNTVYLQMNSLKPEDTAVYYCAAKQVFTAGRSVDYWGQGTQVTVSS”, the “polyreactivity (PSR sort gate)” value is on record as “high polyreactivity”.
The result for “QVQLVDSGGGLVQAGGSLRLSCAASGSTFVYNTMGWYSHAPGKERELVAAISYRGSTYYADSVKGRFTISRENAKNTVYLQMNSLKPEDTAVYYCNGPRRQYEYDFWGLGTQVTVSS” reads “high polyreactivity”; that for “QVQLVDSGGGLVQAGGSLRLSCAASGSTLRRYAMGWYRQAPGKERELVAAISGSGDSTYYADSVKGRFTISRDNAKNTVYLQMNSLKPEDTAVYYCNAVYAFNGYDYWGQGTQVTVSS”, “low polyreactivity”.
